Measured values as given in article PMC12575849, “Condensation-dependent interactome of a chromatin remodeler underlies tumor suppressor activities” (Nature Communications, 2025).

Molecular target: unmodified nucleosome (recombinant human histone octamer on Widom 601 DNA) (human, UniProt P04908 1-130; O60814 1-126; P68431 1-136; P62805 1-103)
Experiment: native gel or EMSA; purified CHD1 titrated against 5 nM IR dye-conjugated nucleosome in EMSA buffer (10 mM HEPES pH 8.0, 75 mM NaCl, 5 mM MgCl2, 10% glycerol, 1 mM DTT, 0.1 mg/ml BSA), 30 min at 30 °C, native PAGE; shifted fraction fitted to a dose-response curve
Details: both partners purified

Kd: 6.3 nM
B1: recombinant CHD1^ΔNC protein (domain or fragment)
chain: EEEFETIERFMDCRIGRKGATGATTTIYAVEADGDPNAGFEKNKEPGEIQYLIKWKGWSHIHNTWETEETLKQQNVRGMKKLDNYKKKDQETKRWLKNASPEDVEYYNCQQELTDDLHKQYQIVERIIAHSNQKSAAGYPDYYCKWQGLPYSECSWEDGALISKKFQACIDEYFSRNQSKTTPFKDCKVLKQRPRFVALKKQPSYIGGHEGLELRDYQLNGLNWLAHSWCKGNSCILADEMGLGKTIQTISFLNYLFHEHQLYGPFLLVVPLSTLTSWQREIQTWASQMNAVVYLGDINSRNMIRTHEWTHHQTKRLKFNILLTTYEILLKDKAFLGGLNWAFIGVDEAHRLKNDDSLLYKTLIDFKSNHRLLITGTPLQNSLKELWSLLHFIMPEKFSSWEDFEEEHGKGREYGYASLHKELEPFLLRRVKKDVEKSLPAKVEQILRMEMSALQKQYYKWILTRNYKALSKGSKGSTSGFLNIMMELKKCCNHCYLIKPPDNNEFYNKQEALQHLIRSSGKLILLDKLLIRLRERGNRVLIFSQMVRMLDILAEYLKYRQFPFQRLDGSIKGELRKQALDHFNAEGSEDFCFLLSTRAGGLGINLASADTVVIFDSDWNPQNDLQAQARAHRIGQKKQVNIYRLVTKGSVEEDILERAKKKMVLDHLVIQRMDTTGKTVLHTGSAPSSSTPFNKEELSAILKFGAEELFKEPEGEEQEPQEMDIDEILKRAETHENEPGPLTVGDELLSQFKVANFSNMDEDDIELEPERNSKNWEEIIPEDQRRRLEEEERQKELEEIYMLPRMRNCAKQISFNGSEGRRSRSRRYSGSDSDSISEGKRPKKRGRPRTIPRENIKGFSDAEIRRFIKSYKKFGGPLERLDAIARDAELVDKSETDLRRLGELVHNGCIKALKDSSSGTERTGGRLGKVKGPTFRISGVQVNAKLVISHEEELIPLHKSIPSDPEERKQYTIPCHTKAAHFDIDWGKEDDSNLLIGIYEYGYGSWEMIKMDPDLSLTHKILPDDPDKKPQAKQLQTRADYLIKLLSRDLAKKEALSGAGSSKRRKARAKKNKA
